Experimental data: paper PMC7261172, “Peptides containing the PCNA interacting motif APIM bind to the β-clamp and inhibit bacterial growth and mutagenesis” (Nucleic Acids Research, 2020)

Experiments:
[1] = biological target: E. coli β-clamp, wild type, His-tagged (UniProt P0A988); assay: SPR; conditions: peak response at the end of the last (highest) peptide injection, about 1130 s; concentrations not given; parent: est. 140; read off a plot
[2] = biological target: β-clamp (Escherichia coli) (UniProt P0A988); conditions: cited from earlier work

response [1] [RU] | Substance | Kd [2] [nM]
8 | Octamer APIM peptide RWLVK (Ac-MDRWLVKW) MDRALVKW (mutated APIM; W to A at peptide position 4 of MDRWLVKW) | –
– | Pol III alpha C-terminal peptide | 2000
